How the values were obtained:
[1] = tested on: rat fast skeletal troponin I, alpha or monophosphorylated form
[2] = tested on: rat fast skeletal troponin I, beta or diphosphorylated form
rat fast skeletal troponin I, beta or diphosphorylated form, sequence (chain, as listed by the source): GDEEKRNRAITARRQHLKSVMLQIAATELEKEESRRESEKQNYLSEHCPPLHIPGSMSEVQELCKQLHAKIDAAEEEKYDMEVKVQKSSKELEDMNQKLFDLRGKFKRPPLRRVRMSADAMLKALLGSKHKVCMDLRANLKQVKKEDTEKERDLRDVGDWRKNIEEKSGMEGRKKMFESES

rat fast skeletal troponin I, alpha or monophosphorylated form, sequence (chain, as listed by the source): as above

Substance: Protein phosphatase-1 (Sigma)
- dephosphorylation of myofibrils prior to 2-dimensional SDS-PAGE [1]: Neither form was evident in samples after dephosphorylation with PP-I
- dephosphorylation of myofibrils prior to 2-dimensional SDS-PAGE [2]: Neither form was evident in samples after dephosphorylation with PP-I
